{"source": "paper doi:10.1101/2023.10.30.564668", "about": "(bioRxiv, 2023)", "binders": {"B1": {"name": "CR57 diabody (other)", "VH": "EVQLVQSGAEVKKPGSSVKVSCKASGGTFNRYTVNWVRQAPGQGLEWMGGIIPIFGTANYAQRFQGRLTITADESTSTAYMELSSLRSDDTAVYFCARENLDNSGTYYYFSGWFDPWGQGTLVTVSS", "VL": "QSALTQPRSVSGSPGQSVTISCTGTSSDIGGYNFVSWYQQHPGKAPKLMIYDATKRPSGVPDRFSGSKSGNTASLTISGLQAEDEADYYCCSYAGDYTPGVVFGGGTKLTVL"}}, "biological_target": "RABV-G domain III (Rabies virus, strain CVS-11 (GenBank …, stabilised))", "assay": "crystal structure", "data": [{"binder": "B1", "values": [{"measurement": "stoichiometry N", "result": 2, "unit": "domain III per diabody"}]}]}
